We go through three molecules from patent US20170145086A1 (VISTERRA, published 2017).

In test [1] the target is T1, HA-GCN4 hAPRIL (amino acid residues 105-250) (human, UniProt O75888 105-250).
T1 sequence: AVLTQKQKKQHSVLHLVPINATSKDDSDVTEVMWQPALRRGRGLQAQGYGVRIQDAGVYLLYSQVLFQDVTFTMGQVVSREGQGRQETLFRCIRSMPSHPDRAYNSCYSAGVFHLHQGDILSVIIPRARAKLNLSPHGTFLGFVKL
Briefly: cell-based or functional assay.

The target in test [2] is T1, HA-GCN4 hAPRIL (amino acid residues …). Briefly: blocking ELISA; blocked: human APRIL binding to BCMA-Fc. As for the experimental part: Recombinant TACI-Fc or BCMA-Fc was coated on 96 well plates in 0.1 M carbonate-bicarbonate buffer (pH 9.6), overnight at 4° C. Plates were washed three times with 1×PBST (PBS+0.025% Tween 20) followed by blocking with 1% BSA in 1×PBS, 37° C. for 1 hour. All subsequent wash steps were carried out with 1×PBST. To assess antibody blocking, either 15 ng/mL or 50 ng/mL HA-GCN4-huAPRIL was preincubated with varying antibody concentrations ranging from 0.03-30 μg/mL in binding buffer comprised of 1% BSA and 0.025% Tween-20 in 1×PBS. Preincubation was carried out at 30° C. for 1 hour with mixing. Antibody-APRIL premix with 50 ng/mL APRIL or 15 ng/mL APRIL was then added to TACI-Fc coated or BCMA-Fc coated plates, respectively, and incubated for an additional hour at 30° C. HA-tagged APRIL binding to either receptor was quantified using a goat polyclonal anti-HA tag-HRP antibody (Abcam) added at a 1:10000 dilution followed by colorimetric development using 100 μl/well of freshly prepared TMB substrate (KPL) carried out for up to 30 minutes at room temperature before quenching enzymatic reaction by the addition of 1N sulfuric acid. ELISA signal was quantified by absorbance at 450 nm. ELISA data was analyzed by non-linear regression. IC₅₀ values were calculated based on a 4 parameter fit of antibody titration curves. […] Non-blocking antibodies Aprly-1 or Aprly-5 (Enzo Biosciences) were used as negative controls. Mouse specific, blocking antibody aprily-1-1 (Adipogen) was generally used as a positive control in experiments using mouse APRIL (HA-GCN4-mAPRIL).
Assay is based on receptor blocking ELISA using recombinant human APRIL (R&D Systems) and either human TACI-Fc (FIG. 30A) or BCMA-Fc (FIG. 30B).
(In general: ELISA stands for enzyme-linked immunosorbent assay.)

For test [3] the target is unchanged. The experiment in a line: blocking ELISA; blocked: human APRIL binding to TACI-Fc.
The target is the same in test [4]. Briefly: indirect ELISA on human APRIL; row printed 4504-063, legend paragraph 738 says 4540-063.
The target in test [5] is T2, HA-GCN4 mAPRIL (amino acid residues 96-241) (mouse, UniProt Q9D777 96-241, Assembles as a homotrimer through the GCN4 zipper; one protomer is given.).
T2 construct: Bought (R&D Systems); also called HA-tagged mouse APRIL (R&D Systems); recombinant mouse APRIL; not shown: N-terminal HA tag and GCN4 isoleucine-zipper trimerisation domain, with any linker, of the bought R&D Systems protein
T2 sequence: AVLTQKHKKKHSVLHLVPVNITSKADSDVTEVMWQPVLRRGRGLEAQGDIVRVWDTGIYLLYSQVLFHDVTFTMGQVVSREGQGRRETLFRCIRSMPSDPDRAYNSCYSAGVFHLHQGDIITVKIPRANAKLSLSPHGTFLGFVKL
Briefly: indirect ELISA on mouse APRIL; row printed 4504-063, legend paragraph 738 says 4540-063.

For test [6], the target named is human TNFα (TNFSF2; Adipogen) (human, UniProt P01375 85-233, limits assumed). The experiment in a line: indirect ELISA, cytokine coated. As for the experimental part: (§1) Selected anti-APRIL antibodies were evaluated for potential cross-reactivity with other members of the TNFa superfamily (TNFSF) family of cytokines, including: human TNFα (TNFSF2; Adipogen), human […] (TNFSF4, Adipogen), human FasL (TNFSF6, Adipogen), human TRAIL (TNFSF10, Adipogen), human RANKL (TNFSF11; Adipogen), human Tweak (TNFSF12; Abcam), human and mouse BAFF (TNFSF13B, AB Biosciences and Adipogen, respectively), and human LIGHT (TNFSF14, Adipogen). These cytokines share variable degree of sequence as well as higher order structural homologies. Among them, BAFF appears to be the most closely related to APRIL, with 29% identity and 53% amino acid sequence similarity.
Sequence of human TNFα (TNFSF2; Adipogen) (P01375 85-233 limits assumed): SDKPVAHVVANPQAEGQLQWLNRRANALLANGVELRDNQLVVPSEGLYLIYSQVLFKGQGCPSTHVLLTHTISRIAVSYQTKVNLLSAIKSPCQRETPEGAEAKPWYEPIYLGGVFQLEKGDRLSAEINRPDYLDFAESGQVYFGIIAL
(§2) Binding was evaluated by an indirect ELISA protocol using similar methods described for evaluation of APRIL binding; cytokines were immobilized to ELISA plate at 50 ng per well and then exposed to a solution of each of the test antibodies at a fixed concentration of 10 μg/ml Anti-human or anti-mouse Ig-HRP polyclonal antibody conjugates (Jackson Laboratories) were used for detection of antibody binding. The results presented in FIG. 36 indicated eleven of the twelve antibodies tested in this assay to specifically bind APRIL with no measurable cross-reactivity with the other TNFSF members substantially above assay background.

Test [7] addresses T3, human FasL (TNFSF6, Adipogen) (human, UniProt P48023 103-281, limits assumed).
T3 sequence (looked up): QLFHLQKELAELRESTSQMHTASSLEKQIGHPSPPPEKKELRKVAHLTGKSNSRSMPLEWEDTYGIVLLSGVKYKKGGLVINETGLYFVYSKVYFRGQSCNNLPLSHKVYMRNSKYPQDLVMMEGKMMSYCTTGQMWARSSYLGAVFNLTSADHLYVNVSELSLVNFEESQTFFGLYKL
The experiment in a line: indirect ELISA, cytokine coated. As for the experimental part:
as §1, §2

Test [8] deals with human TRAIL (TNFSF10, Adipogen) (human, UniProt P50591 95-281, limits assumed). The experiment in a line: indirect ELISA, cytokine coated. As for the experimental part:
as §1, §2

Test [9] deals with T4, human RANKL (TNFSF11; Adipogen) (human, UniProt O14788 152-317, limits assumed).
T4 sequence (looked up): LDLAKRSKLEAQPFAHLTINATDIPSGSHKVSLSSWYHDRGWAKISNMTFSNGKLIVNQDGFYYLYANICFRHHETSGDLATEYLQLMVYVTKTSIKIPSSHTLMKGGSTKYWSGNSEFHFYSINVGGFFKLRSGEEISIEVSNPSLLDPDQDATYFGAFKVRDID
The experiment in a line: indirect ELISA, cytokine coated. As for the experimental part:
as §1, §2

In test [10] the target is T5, human Tweak (TNFSF12; Abcam) (human, UniProt O43508 94-249, limits assumed).
T5 sequence (looked up): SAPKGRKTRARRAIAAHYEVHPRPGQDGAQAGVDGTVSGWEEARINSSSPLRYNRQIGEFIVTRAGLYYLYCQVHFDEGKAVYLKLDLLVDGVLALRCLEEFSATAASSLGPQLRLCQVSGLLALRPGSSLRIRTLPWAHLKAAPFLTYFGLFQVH
Briefly: indirect ELISA, cytokine coated. As for the experimental part: as §1, §2

For test [11], the target named is human BAFF (TNFSF13B, AB Biosciences) (human, UniProt Q9Y275 134-285, limits assumed). The experiment in a line: indirect ELISA, cytokine coated. As for the experimental part: as §1, §2
Sequence of human BAFF (TNFSF13B, AB Biosciences) (Q9Y275 134-285 limits assumed): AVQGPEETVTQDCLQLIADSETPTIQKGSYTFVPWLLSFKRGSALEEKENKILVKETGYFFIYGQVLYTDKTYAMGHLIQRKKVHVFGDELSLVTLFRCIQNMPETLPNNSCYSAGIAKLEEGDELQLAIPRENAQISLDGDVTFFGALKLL
The target in test [12] is mouse BAFF (TNFSF13B, Adipogen) (mouse, UniProt Q9WU72 127-309, limits assumed). Briefly: indirect ELISA, cytokine coated. As for the experimental part:
as §1, §2

Test [13] concerns the target human LIGHT (TNFSF14, Adipogen) (human, UniProt O43557 89-240, limits assumed). Briefly: indirect ELISA, cytokine coated. As for the experimental part: as §1, §2
In test [14] the target is T6, human APRIL variant V181E (Homo sapiens, UniProt O75888).
T6 construct: one of the variants grouped under m24
T6 sequence (APRIL monomer, looked up): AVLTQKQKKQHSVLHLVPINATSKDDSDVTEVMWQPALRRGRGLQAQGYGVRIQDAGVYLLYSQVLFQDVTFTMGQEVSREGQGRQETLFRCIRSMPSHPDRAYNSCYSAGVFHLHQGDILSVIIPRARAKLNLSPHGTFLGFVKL
Briefly: ELISA on the human APRIL variant V181E [panel V181E]. As for the experimental part: (§3) Antibody binding to human and mouse variants was assessed by ELISA. […] FLAG-tagged APRIL was captured from cell culture media using anti-FLAG antibody. The results are shown in FIGS. 23A-23B, 24A-24B, and 25A-25B. Differentiated epitope mapping of exemplary anti-APRIL antibodies was performed by site directed mutagenesis. Primary characterization of human APRIL binding site was carried out by site-directed mutagenesis of select amino acid positions within APRIL followed by evaluation of antibody binding to these variants by ELISA.

The target of test [15] is T7, pur. muAPRIL (Mus musculus, UniProt Q9D777).
T7 sequence (APRIL monomer, looked up): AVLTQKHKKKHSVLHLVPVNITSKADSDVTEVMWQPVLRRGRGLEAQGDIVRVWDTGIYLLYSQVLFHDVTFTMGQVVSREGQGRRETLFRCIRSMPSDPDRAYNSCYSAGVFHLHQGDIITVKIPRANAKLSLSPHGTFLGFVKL
Briefly: ELISA, purified APRIL control. As for the experimental part:
as §3

Test [16] deals with T8, FLAG-tagged mouse APRIL (WT muAPRIL and muAPRIL Mutants) (Mus musculus, UniProt Q9D777).
T8 sequence (APRIL monomer, looked up): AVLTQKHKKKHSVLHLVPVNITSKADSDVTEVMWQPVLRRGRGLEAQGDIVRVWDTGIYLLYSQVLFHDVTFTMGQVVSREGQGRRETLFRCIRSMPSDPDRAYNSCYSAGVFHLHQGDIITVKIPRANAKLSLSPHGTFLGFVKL
Briefly: ELISA, FLAG-APRIL captured with anti-FLAG antibody. As for the experimental part: as §3

Sequence of human TRAIL (TNFSF10, Adipogen) (P50591 95-281 limits assumed): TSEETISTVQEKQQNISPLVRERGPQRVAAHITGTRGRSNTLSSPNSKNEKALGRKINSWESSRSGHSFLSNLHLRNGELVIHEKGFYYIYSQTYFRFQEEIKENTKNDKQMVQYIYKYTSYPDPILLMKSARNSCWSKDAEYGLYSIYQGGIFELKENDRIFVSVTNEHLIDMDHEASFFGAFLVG
Sequence of human LIGHT (TNFSF14, Adipogen) (O43557 89-240 limits assumed): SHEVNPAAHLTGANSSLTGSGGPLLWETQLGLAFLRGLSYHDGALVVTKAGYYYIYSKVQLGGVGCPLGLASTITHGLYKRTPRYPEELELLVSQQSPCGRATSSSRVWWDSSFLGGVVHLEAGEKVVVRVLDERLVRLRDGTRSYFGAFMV
Sequence of mouse BAFF (TNFSF13B, Adipogen) (Q9WU72 127-309 limits assumed): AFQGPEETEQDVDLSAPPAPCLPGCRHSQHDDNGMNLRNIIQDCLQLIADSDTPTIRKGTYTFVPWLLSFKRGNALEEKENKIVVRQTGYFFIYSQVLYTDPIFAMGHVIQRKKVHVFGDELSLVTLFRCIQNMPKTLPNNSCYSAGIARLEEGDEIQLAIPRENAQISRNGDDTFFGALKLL

B1: monoclonal antibody 4540-063 (antibody, IgG1, V domains shown)
VH: QVQLVQSGAELKKPGASVKVSCKASGYTFADYYMNWVRQAPGQGLEWMGWIFPGSGSTYYNQKFQGRVTMTVDKSSSTAYMELSRLRSDDTAVYYCARGDSGRAMDYWGQGTLVTVSS
VL: DIQMTQSPSSLSASVGDRVTITCQASQDINKYLAWYQHKPGKAPKLLIHYTSTLETGVPSRFSGSGSGTDFTFTISSLQPEDIATYYCLQYDNLLTFGGGTKVEIK
On to B1, for which, in test [1], the “IC50 (inhibition of APRIL-mediated BCMA NFκB signaling)” value is around 1.04 nM and the “IC50 (inhibition of APRIL-mediated TACI NFκB signaling)” value was around 7.19 nM. In addition, in test [2], the IC50 is 1.92 nM and the “Relative Activity (normalised to 2419)” value stood at 8.11. In [3], the IC50 came out at 0.67 nM and the “Relative Activity (normalised to 2419)” value was 2.43. Moreover, a half-maximal response in test [4] (EC50) required 0.00206 nM. Also, the concentration for a half-maximal effect (EC50) in test [5] came out at 0.00156 nM.

B2: monoclonal antibody 2419 (antibody, V domains shown)
VH: QVQLQQSGAELVKPGASVRLSCEASGYTFTDYTIHWVKQRSGQGLEWIGWIYPLRGSINYNEKFKDKATLTADKSSSTVYLELGRLTSKDSAVYFCARHGAYYSNAFDYWGQGTTLTVSS
VL: NIVMTQSPASLAVSLGQRATISCRASESVDNDGIRFMHWYQQKPGQPPKLLIYRASNLESGIPARFSGSGSRTDFTLTINPVETDDVATYYCQQSNKDPYTFGGGTKLELK
On to B2, for which the binding result in test [6], in test [7], in test [8], in test [9], in test [10] and in [11] was “no binding (tested: 10 µg/ml (p-1128))” each time. For the same molecule, the binding result in test [12] is given as “no binding (tested: 10 µg/ml (p-1128))”; in test [13], “no binding (tested: 10 µg/ml (p-1128))”; in test [14] it was “binds”.

B3: monoclonal antibody 4035 (antibody, V domains shown)
VH: QVQLKESGPGLVAPSQSLSITCTVSGFSLTIYDVHWVRQSPGKGLEWLGVIWSDGSTDYNAAFISRLSISKDNSKSQVFFKMNSLQADDTAIYYCARNWVDQAWFAYWGQGTLVTVSA
VL: DIQMTQSPASLSASVGETITITCRASKNIYSYLAWYQQKQGKSPQLLVYNAKTLPEGVPSRFSGSGSGTQFSLKINSLQPEDFGSYYCQHHYGTPLTFGAGTKLELK
notes: mouse-derived
B3: the binding result is listed as “no binding” in [15]; “no binding (tested: 10 µg/ml (p-1128))” in test [6]; “no binding (tested: 10 µg/ml (p-1128))” in test [7]; “no binding (tested: 10 µg/ml (p-1128))” in test [8]; “no binding (tested: 10 µg/ml (p-1128))” in test [9]; “no binding (tested: 10 µg/ml (p-1128))” in test [10]. For the same molecule, the binding result is listed as “no binding (tested: 10 µg/ml (p-1128))” in [11], “no binding (tested: 10 µg/ml (p-1128))” in test [12], “no binding (tested: 10 µg/ml (p-1128))” in test [13] and “no binding” in test [16].

As usually defined, the IC50 is the concentration needed to halve the response being measured. A lower IC50 goes with greater potency in that assay. By EC50 is commonly meant the concentration needed to bring the measured effect to its halfway point. A high value points to weaker potency.
